Paper doi:10.1101/2024.05.03.592134

What was measured:
[1] = target: Bxy_22780 E350G mutant (nucleophile mutant) (Bacteroides xylanisolvens); assay: crystal structure
[2] = target: Bxy_22780 wild-type (β-1,2-galactosidase from Bacteroides xylanisolvens, GH35) (Bacteroides xylanisolvens); assay: crystal structure

| stoichiometry N [1] | stoichiometry N [2] | Substance |
| --- | --- | --- |
| 4 |  | Bxy_22780 E350G mutant (nucleophile mutant) (enzyme) |
|  | 4 | Bxy_22780 wild-type (β-1,2-galactosidase from Bacteroides xylanisolvens, GH35) (enzyme) |
